Reference: the DeepSol protein solubility set

Assay: soluble on expression in E. coli; label from the status in PepcDB or PDB records

Sequence | soluble on expression in E. coli
MSSSLFAPTIETIDYPFPPKPVPLSDAQKADYKARIKQLLIEKDAVLVAHYYTDPEIQALAEETGGCVSDSLEMARFGRDHPAKTLIVAGVKFMGETAKILSPEKTILMPTLEATCSLDLGCPIDKFSAFCDAHPDHTVVVYANTSAAVKARADWVVTSSIALEIVEHLDSEGKKIIWGPDRHLGSYIAKQTGAEMLMWQGDCIVHDEFKANALRDLKSVYPDAAILVHPESPASVVAMADAVGSTSQLIKAAQTMPNERFIVATDRGIFYKMQQAAPGKTLIEAPTGGNGATCKSCAHCPWMAMNGLKAIEASLSNSDKTTHEIFVDEDLRVKALIPLTRMLDFAKTLNMKVKGNA | soluble
MKIYVSCDIEGLAGIATFDMEKEDTVLFRELYHQHVAWLIEGIQKSAKNEQITEITIADSHSRGLNLAYARLAEMDERISLVSGFPRMDYMMSGLDSSYDVVFFLGYHAGIGKQKGNMDHGYSASVAYDLKINDLAMNETTINAAYASELGVPVGLIIGESGLEEQLFQEKMMPEVPFVSTKESLGRYAIKNRPMQQVREAIVATTSQVLTSFALSELPRYALQTPATVKLQCVTTAQADRIEMLPMIKRIDGRTVSFVGETMKDVMNGIVAVVGLGGTSY | not soluble
MAHHHHHHMAIPPHGFIEAIHASPLRCVLYVMGAGSSAIAQLTSVAGCSRTLLDARVPYAMAAALQMLDDQPPKMVSATVARQMAQHAHHRAVEYSNGDDDGTLVGIGSTSAVQTNRIRHGKDSAFVAAWSQRQVVEFAMELPGHLARAEQEEQVTLLLFKALAECAKVPFEISFVVEPKRISYIVPDSPLRRLLQGEMKFLVFNTYGELRANFVPYVAETSFAVKPENSWKALLFPGSFRPLHWGHTELARAAVRAMATMKGTLNSTSTDTSSPSWNVPDASNVQVTYEIAVDNADKGIIDSDVELKKRVQQFLQRGARVAVTRARLFTEKALLFPGHGFIVGIDTMKRILDPKYYDNSREAMLRAMEFIREQGGYFVVAGRASGGKDAVWEDLTSIEVPAEVESMLISIRKEDFCVDVSSTMLRERNKSTC | not soluble
MGSDKIHHHHHHMISQFIDRKRELAILEREWKNTPSFVVIYGRRRVGKTRLLVEFSKGKKVFFYTFMEGTKESQVKSLAKELVDFFNDEIFLSFSDWYPLFKYLSGKLMEKTLFVFDEFTYAVKSDRSILSALQRVWDHELSYKPVMLVLSGSLMGIMEDNVLSHSSPLYGRRTAGFRLRSLGLFPSLRFFKSPIEGLKFYMLLGGIPAYLIIASRYETVGEFVEREFLTPEGYFYDEPYIVLSELKELKTYFSILSAMSSGRRRPSEIASEVGLEGRKIYPYLETLIRLGFVERELPIARKEKRGLYRISDPMLMSWFSLIYPNRTEIELGTITLERVEKILQRIFSFRFEDVSREFLVEMNKAGKLPFRFTKIGRWWYKGEEIDLVALNEDEEKALFIEVKWKDLKEREVKGILKDLEKKAGLVGLDGWDKNYGLIEKSIERKEKLREENYLVWDLKDFDALKILSQ | not soluble
MANSGEEKLKLYSYWRSSCAHRVRIALALKGLDYEYIPVNLLKGDQFDSDFKKINPMGTVPALVDGDVVINDSFAIIMYLDEKYPEPPLLPRDLHKRAVNYQAMSIVLSGIQPHQNLAVIRYIEEKINVEEKTAWVNNAITKGFTALEKLLVNCAGKHATGDEIYLADLFLAPQIHGAINRFQINMEPYPTLAKCYESYNELPAFQNALPEKQPDAPSSTI | soluble
MGEGTRGEAFKKIREGYKVHIFDESYVSYINKGKGWMKVGGGIKVNPKRKRFAVVGGITISKEGITFSYSTYKKPSLNSKDIILYLRKVIKDEKTVIVMDNARIHGNEVREFLEENGVEFVYLPPYSPDKSPAEGPWAVLKKRLYSKIYTDFETLMWDATRFLRSISKRVNDLTYSVKRCGEPLDVNTE | soluble
GYCGPCPNNWICHRNNCYQFFNEEKTWNQSQASCLSQNSSLLKIYSKEEQDFLKLVKSYHWMGLVQIPANGSWQWEDGSSLSYNQLTLVEIPKGSCAVYGSSFKAYTEDCANLNTYICMKRAV | soluble
MRRLLTLWVLGLGALAQVPVGQVATRDVHALLWLPDGRLLFGHHDGLQVSEDEGRTWRDLVRKTGFDAMEHSFWRGDRLLAAEHWVLSESRDGGKTWRSFRPRGLPALDLHGYAASGGLHFALEATHGYFVSEDGGKTFKSTAPKGLPKAGMAAMVFQGKTLYVAPMGQGLYQSSDGGRTFTQVPTPEREIYALATGAGTLYLGGKTGLWQRTPAGWKRLWQGAVLALAAHPQEAGRLVFIDGQERVWKLP | soluble
MNSNANNTPIAIGISQVFPCSYLDGQQEQLLVIQEETLDPILFERLLAIGFRRSGSAIYKPRCPRCSACQPIRVPIQEFVPSKRQKRTLAHNRDLTWRITTEHTETQYALYEKYIRERHFDGPMYPPSKAQYEQFLFCHWLPPTFIEVYDDNRLVAVAVTDTLPNSFSAIYSYFDPDEERRSLGVLLILLQCRLAKLQGKAFLYLGYQIDANRKMSYKRLYRPYQILTHQGWEYSQVCLEHHHHHH | not soluble
MKMDYILSDFAQKQGYAVESYEIVDSTNYIAQQKAHAGHHGYLWVVAKEQSQGRARRGRTWSSPKGNLYSSLLLVEDIVHQTAAQLGFVAGVSVVETIKQFIKDEKQTSDIVSLKWPNDILLRGAKSSGILLEIFKLPSQQYALVIGIGINVKYHYEDAPYPTSSLKNIGLDIETEQLFTVLTEYFSKNYLLWKQLGGCDRIREKWLLYSAHSGQYVKIVNDEKIIEGIFDGLDNDFNCVIKQKNGQQAVITAGDVHFGSSASVNAGCY | not soluble
MSLKVVFVSYEVFPFAKVGGLADVAGTLPKYLKKHGVDVTIVMPKHRIVEKNAEKFGYEIKKVAESLSVSHVKTDQKFDIYESVLPGSDVKTYFVANDYYFSAEDVYAGPDLGEQAIFFCAATLDLVKHLDLKPDIVHVNDWQTALIPVYLKTVYRDDPYFSRTATVLTIHNLGYQGVFDPKYLSFAGLPDYVYTIDGLEFYGQLNFLKGGIVFSDVINTVSPTYAEEIQTEEYGEKLDGVLRMRSKDLYGILNGIDYELYNPATDRYIYVNYDVNRLELKWENKVKLQEELGLPVNKETAVAGLISRLVPQKGLDLLVDVMDYLTLFDLQIVVLGTGDEQYENAFRKFQERYPDKVSANIKFDVELAQKIYAGADIFLMPSRYEPCGLGQMFSMRYGTIPVVRYTGGLADTVKEYDPQSMEGTGFGFKKYDSAHLLKAVSKALHFYYREKDHWRRIMTNAMNTDLSWDRSAKEYVDLYKKALAKVGREGHHHHHH | soluble
GPGSMASSKVILEDTFTVAAVNEEGTVYSRVSRVRCTGEGGGLIITSDVNTGEFPLHSGDRLTIILTDSIELSEQAGSKHYDQSVYHRSTRLDDCDYAMHGRVYSMEVNESSLDVTVHISCGGLLTQIVGKPQSLKDVHYNSDVYILMKRPGS | soluble
MGSSHHHHHHSSGLVPRGSTKVKYVDKIHIGNYEIDAWYFSPFPEDYGKQPKLWLCEYCLKYMKYEKSYRFHLGQCQWRQPPGKEIYRKSNISVHEVDGKDHKIYCQNLCLLAKLFLDHKTLYFDVEPFVFYILTEVDRQGAHIVGYFSKEKESPDGNNVACILTLPPYQRRGYGKFLIAFSYELSKLESTVGSPEKPLSDLGKLSYRSYWSWVLLENLRDFRGTLSIKDLSQMTSITQNDIISTLQSLNMVKYWKGQHVICVTPKLVEEHLKSAQYKKPPITVDSVCLKWAPPK | soluble
SLNILFDIGHPKDVNVFKNVIWKLQERGHEIKIVARAKENTKRVLEEYGFEYEVCKYYKTMSGKALGIITNDIHLYNIAKKFQPDIFVSPGSPYSAHVSRLLRKPHIAFSDTEIAGLVMKLTFPFTDKIYTSSSFYLDLGPKQIRFNGYYELAYLHSNYFTPNRDVLKKYNLDEGYIILRLSALSSHHDIGAKGFTFSSEEELIDFIRELERYGRVIVSSETKQWKTISDYELKFKPGDLHDLLYYSKMCIGEGATMASEAAILGVPAIYVSNTHRGYLDELETYELAFTIQEREEALKKAKSLLEEDSLVKNSKEKREKLLKEKTDVVEFMVNAIEGSYKL | soluble
MPNNLELKQLIASAQVLGLQNDSSLPAFDRQILRMADEEKRALSPTEIQHICQTSKVDAQLIEQLQSQANHLVQQAREFLVKEQPHLVQSGGALFPSERAEACWRDCWQFFRVIVYAIACKRPLFTDAEGMGALRALYAHVGVPIEGLNIALKQLKVLSRQEISGAIEAPLLSESFGHLLEELNKTGVKS | not soluble
